Assay results as given in patent US20200206358A1, “LONG-CIRCULATING THERANOSTIC AGENTS FOR DIAGNOSING AND IMAGING METASTATIC TUMORS” (The Board of Trustees of the Leland Stanford Junior …, priority 2018, published 2020).
Values belong to the molecule of their own block, whether it stands above or below them. Non-standard residues stand in square brackets, D forms with d. Residues, ends and D or L forms follow the SMILES beside them. ξ: configuration not given here. *: point of attachment. X1 = Cc1cc(-c2ccc(N*)c(C)c2)ccc1N=Nc1ccc2c(S(=O)(=O)O)cc(S(=O)(=O)O)c(N)c2c1O; DOTA = O=C(O)CN1CCN(CC(=O)O)CCN(CC(=O)*)CCN(CC(=O)O)CC1; ξE = NC(CCC(=O)O)C(=O)O

Tests used:
143B tumor = test: microPET/CT imaging, time activity curves in 143B tumor bearing nude mice; format: in vivo
Description: (§1) The tumor uptake of [^64Cu]DOTA-EB-TMTP1 was increased as time goes by, and reached the plateau of 6.5±0.8% ID/g at 8 h after injection.

[1] = as above; format: in vivo; conditions: mouse, in vivo, iv; 8 h after i.v. injection, 143B tumor bearing nude mice; read-out: tumor uptake (plateau, PET time activity curve)
Description: as §1

[2] = cell uptake of [^64Cu]DOTA-EB-TMTP1; format: cell-based; conditions: n=4, mean±SD; uptake ratio increased with time
in vivo = test: in vivo; design: species or system nude mice; conditions: nude, mouse, iv
Source text: Tumor uptake was 6.7[…]% ID/g.

143B cells = test: inhibition of [^64Cu]DOTA-EB-TMTP1 binding to 143B cells by TMTP1; conditions: TMTP1 competing with [^64Cu]DOTA-EB-TMTP1 on 143B cells; unit inferred
[3] = system: highly metastatic tumor cells; conditions: literature, PLOS One (2012) 7(9): e42685; cited from earlier work

Molecule: Cc1cc(-c2ccc(NC(=O)CCC(NC(=O)CN3CCN(CC(=O)O)CCN(CC(=O)O)CCN(CC(=O)O)CC3)C(=O)NCC(=O)N[C@@H](CC(N)=O)C(=O)N[C@H](C(=O)N[C@H](C(=O)N[C@@H](CCCNC(=N)N)C(=O)N[C@@H](CCC(N)=O)C(=O)O)C(C)C)C(C)C)c(C)c2)ccc1N=Nc1ccc2c(S(=O)(=O)O)cc(S(=O)(=O)O)c(N)c2c1O (some centres unmarked) [[^64Cu]DOTA-EB-TMTP1, metal not drawn] ({DOTA}-[ξE](X1)GNVVRQ-OH)
tumor uptake (plateau, PET time activity curve) (143B tumor; 8 h after i.v. injection, 143B tumor bearing nude mice): 6.5%±0.8 % ID/g
circulation time in the body (143B tumor; mouse, in vivo): long circulation time
pharmacokinetic properties (143B tumor; mouse, in vivo): favorable pharmacokinetic properties
tissue uptake at 8 h [1]: 6.5 ± 0.8 %ID/g
time at which cell uptake ratio reached the peak [2]: 45 min
tissue uptake at 48 h (in vivo): 6.7 %ID/g

IC50 (143B cells): 211 nM
Molecule: NVVRQ [TMTP1]
affinity for a series of highly metastatic tumor cells [3]: high affinity
